Measurements from patent US20220372137A1 (OXFORD BIOTHERAPEUTICS, published 2022).

T1: human SLAMF6 expressed on the cell surface (Raji cells, human PBMCs, T cells) (human, UniProt Q96DU3 22-332)
T1 sequence: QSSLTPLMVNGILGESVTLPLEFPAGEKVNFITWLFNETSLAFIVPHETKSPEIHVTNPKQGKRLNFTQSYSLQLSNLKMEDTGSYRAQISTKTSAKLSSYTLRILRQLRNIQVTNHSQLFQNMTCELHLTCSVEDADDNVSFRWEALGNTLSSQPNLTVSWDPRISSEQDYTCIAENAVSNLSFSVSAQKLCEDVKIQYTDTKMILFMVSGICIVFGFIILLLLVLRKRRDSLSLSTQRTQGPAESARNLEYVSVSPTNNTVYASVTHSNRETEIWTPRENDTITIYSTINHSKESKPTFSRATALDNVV

T2: Antigen flowed over the chip in the Biacore experiment (SLAMF6, construct not stated) (Homo sapiens (Human), UniProt Q96DU3 22-226, limits assumed)
T2 sequence: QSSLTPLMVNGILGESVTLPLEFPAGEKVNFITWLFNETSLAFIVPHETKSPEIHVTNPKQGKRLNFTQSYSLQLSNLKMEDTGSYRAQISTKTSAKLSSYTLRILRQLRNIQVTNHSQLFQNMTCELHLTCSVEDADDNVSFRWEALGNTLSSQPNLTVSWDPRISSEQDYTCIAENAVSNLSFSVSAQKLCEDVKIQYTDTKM


Columns and labels:
[1] = molecular target: T1, human SLAMF6 expressed on the cell …; assay: cell-based or functional assay
[2] = molecular target: T1, human SLAMF6 expressed on the cell …; assay: flow cytometry on human PBMCs pre-blocked with 300 nM SLAMF6 ECD-mIgG2a Fc fusion protein, goat anti-human IgG-RPE secondary antibody
Method: Cryopreserved human PBMCs were thawed and washed once by suspension in FACS buffer (DPBS with 2% FCS) followed by centrifugation for 5 minutes at 1200 rpm to pellet cells and discarding of supernatant (same method used for subsequent washes). The cells were dispensed into a 96-well assay plate at 100,000 cells per well in FACS buffer before being washed once more. Cells were then blocked with SLAMF6 ECD-mIgG2a Fc fusion protein at 100 nM or 300 nM for 1 hr for SLAMF6 receptor blocking in 100 μl FACS buffer on ice for 1 hour before being washed. Humanized Hu_1B3 antibody or human IgG1 Isotype control at top concentration of 10 nM and a titration by serial dilution of 1 in 3, was then added to the blocked PBMCs and the cells were incubated for 1 hr on ice before being washed twice. The secondary antibody, goat anti-human-IgG-RPE (Southern Biotech, Ref: 2040-05) at a concentration of 1 μg/mL in FACS buffer, was then applied to the treated cells for 30 minutes on ice. […] Mean fluorescence intensity for the secondary antibody was determined for each sample using an Attune NxT Flow Cytometer (ThermoFischer Scientific) in a 96-well plate format according to industry standard protocols, and the raw data was analyzed using FlowJo analysis software.

[3] = molecular target: T2, Antigen flowed over the chip in the …; assay: SPR, Biacore T-200 at 25 °C; antibody captured on goat anti-human IgG, antigen flowed over
Method: Flow cells 2, 3 and 4 of the CM5 chip were coated with maximum amounts 500 RU of goat anti-human IgG. Test Ab were captured on flow cells 2, 3 and 4. Flow cell 1 was kept blank and used for reference subtraction. Antigen was flowed over the chip. Binding of antigen to the antibodies was monitored in real time. From the observed kₒₙ and koff, KD was determined.

[4] = molecular target: T1, human SLAMF6 expressed on the cell …; assay: flow cytometry on SLAMF6-expressing Raji cells, goat anti-mouse secondary antibody
Method: […] Raji cells were placed in each well of a 96 well plate and washed 1× with FACS buffer (DPBS, 2% FBS). The cells were pelleted by spinning for 5 min at 1200 rpm. The pellet was washed 1× with FACS buffer (DPBS, 2% FBS) and again pelleted by spinning for 5 min at 1200 rpm and resuspended in FACS buffer. The test antibody were diluted to 30 nM/l in FACS buffer and increasing amounts as shown in FIG. 4 added to each well which was incubated for 30 min on ice. The cells were then washed 1× with FACS buffer (DPBS, 2% FBS) and pelleted, washed and resuspended in FACS buffer. Secondary goat-anti-mouse antibody was diluted to 1 μg·ml and 100 μl added to each well the plate was incubated for 30 min on ice then washed 1× with FACS buffer (DPBS, 2% FBS). The cells were pelleted and resuspended in 200 ul FACS buffer. Samples were read using the Guava Easycyte Plus HT flow cytometer and results analysed using the Guava Cytosoft software suite.

Row | Granzyme B release from activated T cells (plate-coated antibody plus OKT3, ELISA), EC50 [1] | upregulation of intracellular perforin in CD8+ T cells (flow cytometry), EC50 [1] | EC50 (read off the curve) [2] | Ka [3] | Kd [3] | koff [3] | kon [3] | EC50 (read off the curve) [4] | Binder
1 | 0.51 mg/L | 0.44 mg/L | ~0.4 nM | 5.8e+08 M⁻¹ | 1.72 nM | 0.000932 s⁻¹ | 541000 M⁻¹ s⁻¹ |  | humanised antibody Hu_1B3 (antibody, human IgG1, kappa, L234A L235A, V domains shown, It was captured or detected with anti-human IgG and compared with a human IgG1 isotype control; also called humanised 1B3 antibody; humanized Hu_1B3 antibody) VH: QVQLVQSGAEVKKPGASVKVSCKASGYAFTNYLIEWVRQAPGQGLEWIGVINPGSGGTNYNEKFQGRVTLTADKSISTAYMELSRLRSDDTAVYYCARRGWDYFDYWGQGTLVTVSS VL: DIQLTQSPSSLSASVGDRVTITCQASQDVSYIYWYQQKPGKAPKPWIYRTSNLATGVPSRFSGSGSGTDYTFTISSLQPEDIATYYCQQWDNNPYTFGQGTKLEIKR
2 |  |  |  |  |  |  |  | ~0.2 nM | parental murine 1B3 antibody (antibody, V domains shown, also called antibody 1B3; mouse 1B3) VH: QVQLKQSGAELVRPGTSVKVSCKASGYAFTNYLIEWVKQRPGQGLEWIGVINPGSGGTNYNEKFKDKATLTADKSSNTAYMQLSSLTSDDSAVYFCARRGWDYFDYWGQGTTLTVSS VL: QIVLTQSPALMSTSPGEKVTMTCSASSSVSYIYWFQQKPGSSPKPWIYRTSNLASGVPARFSGSGSGTSYSLTISSMEAEDAATYYCQQWDNNPYTFGGGTKLEIK
